Results: US20120135472

Molecular target: T1, small fragment of Nanoarchaeum equitans DNA polymerase (Neq S)
T1 chain: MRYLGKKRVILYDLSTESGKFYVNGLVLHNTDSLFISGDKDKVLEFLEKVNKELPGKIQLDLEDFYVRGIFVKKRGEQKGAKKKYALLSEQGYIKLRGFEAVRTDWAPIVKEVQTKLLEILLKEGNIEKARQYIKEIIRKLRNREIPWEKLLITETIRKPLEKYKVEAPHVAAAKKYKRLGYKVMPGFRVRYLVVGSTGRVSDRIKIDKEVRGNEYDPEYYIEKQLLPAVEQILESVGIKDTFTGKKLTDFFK

B1: large fragment of Nanoarchaeum equitans DNA polymerase (Neq L) (protein)
chain: MLHQLPTMVVEEKAVKEEEGYSVLKCYWINIENTPLDEVILIGKDENNRACEVIIPYKWYFYFEGDIKDLEEFANNKKIKIEYTKEQKKYIEKPKDVYKVYVLHKHYPILKEFIKEKGYKKYETDINVYRKFLIDKGIEPFEWFEVEGKILLSTSNKVRIKAQSIKRLYEKTKPSVLAFDIEVYSEAFPNPEKDKIISIALYGDNYEGVISYKGEPTIKVNTEYELIEKFVEIIESLKPDIIVTYNGDNFDIDFLVKRASLYNIRLPIKLVNKKEPTYNFRESAHVDLYKTITTIYKTQLSTQTYSLNEVAKEILGEEKIYDYENMLYDWAIGNYNKVFEYNLKDAELTYKLFKYYENDLLELARLVNQPLFDVSRFSYSNIVEWYLIKKSRKYNEIVPNKPKMEEVERRKLNTYAGAFVYEPKPGLYENLAVLDFASLYPSIILEHNVSPGTIYCEHDDCKQNGVEAIINNEKKYVWFCKKVKGFIPTVLEHLYTKRLELKRKLKELDRDSEEYKIINAKQAVLKIIINATYGYMGFPNARWYCIDCAAAVAAWGRKYINYILKRAEEEGFKVIYGDSIMDTEIEVIENGIKKKEKLSDLFNKYYAGFQIGEKHYAFPPDLYVYDGERWVKVYSIIKHETETDLYEINGITLSANHLVLSKGNWVKAKEYENKNN
activity of DNA polymerase (3H-dTTP incorporation, relative to 20 pmoles of Neq P = 100%): The activity of DNA polymerase of the solution was very low after the protein trans-splicing of Neq L and Neq S at 60° C., but was maximized at 95 °C
